“And” between values parts separate entries of the source, which are not always exact repeats. Equal values may be shown once.

Usually stoichiometry N stands for the number of molecules, sites or subunits per partner or assembly.

Assay [1] concerns the target Streptococcal surface enolase (SEN), wild-type, group A Streptococcus (Streptococcus pyogenes) (Streptococcus pyogenes (group A Streptococcus)) (UniProt P69949). Kind of assay: crystal structure; hanging drop, 1-3.5 M sodium/potassium phosphate pH 5-7.5, 2% PEG 400; space group P4; octamer = tetramer of dimers.
The target in assay [2] is Human Glu-plasminogen (circulating form of human plasminogen) (human). Put plainly: ELISA; plate coated with serial dilutions of Glu-plasminogen (carbonate buffer pH 9.6); wells incubated with 5 ug wild-type or mutant SEN; apparent KD, one-site specific binding. On the technique in general: An ELISA detects its analyte on a solid surface through an enzyme-linked reagent.
For assay [3], the target named is Streptococcal surface enolase (SEN), wild-type, group A Streptococcus (Streptococcus pyogenes) (Streptococcus pyogenes (group A Streptococcus)) (UniProt P69949). Kind of assay: native MS; Superdex-200 in 200 mM NH4OAc pH 6.8, peak fractions pooled, Synapt HDMS under conditions that preserve non-covalent interactions; single peak of wild type and K312A, elution peak 1 of K362A.

Assay [4] addresses Streptococcal surface enolase mutant SEN^K312A (Streptococcus pyogenes (group A Streptococcus)) (UniProt P69949). Put plainly: crystal structure; hanging drop, 1-3.5 M sodium/potassium phosphate pH 5-7.5, 2% PEG 400; space group P4; octamer = tetramer of dimers.
Assay [5] has the same target. Kind of assay: native MS; Superdex-200 in 200 mM NH4OAc pH 6.8, peak fractions pooled, Synapt HDMS under conditions that preserve non-covalent interactions; single peak of wild type and K312A, elution peak 1 of K362A.
Assay [6] deals with Human Glu-plasminogen (circulating form of human plasminogen) (human). Kind of assay: SPR; BIAcore 3000; Glu-plasminogen immobilised on a CM5 chip (~10,000 RU; also a lower-density surface ~1,000 RU); 100 nM SEN injected 500 s at room temperature in 10 mM HEPES pH 7.4, 0.15 M NaCl, 3 mM EDTA, 0.005% P20, 30 ul/min; kinetic models could not be fitted, assessed qualitatively. (In SPR one partner is held on a chip, and binding of the other changes the refractive index at the surface.)

Assay [7] deals with Streptococcal surface enolase mutant SEN^K362A (Streptococcus pyogenes (group A Streptococcus)) (UniProt P69949). Kind of assay: crystal structure; hanging drop, 1-3.5 M sodium/potassium phosphate pH 5-7.5, 2% PEG 400; space group P4; octamer = tetramer of dimers.
Assay [8] shares this target. Put plainly: native MS; Superdex-200 in 200 mM NH4OAc pH 6.8, peak fractions pooled, Synapt HDMS under conditions that preserve non-covalent interactions; single peak of wild type and K312A, elution peak 1 of K362A.

With “Streptococcal surface enolase (SEN), wild-type, group A Streptococcus (Streptococcus pyogenes) (from UniProt P69949 1-435) (enzyme)”, the stoichiometry N in assay [1] and in assay [3] was 8 in each case. In assay [2], the Kd is 14.1 nM.
As for “Streptococcal surface enolase mutant SEN^K312A (from UniProt P69949 1-435) (enzyme)”, the stoichiometry N in assay [4] and in assay [5] was 8 in each case. Also, the Kd in assay [2] was 19.3 nM. The percent increase in plasminogen binding (against wild-type SEN) in assay [6] was found to be 196%.
In the case of “Streptococcal surface enolase mutant SEN^K362A (from UniProt P69949 1-435) (enzyme)”, the stoichiometry N in assay [7] is 8; in assay [8] it was 8 and 7. Moreover, the Kd in assay [2] came to 1.85 nM. Further, the percent increase in plasminogen binding (against wild-type SEN) in assay [6] worked out at 341%.

Values taken from PMC4373793.
